Usually Km stands for the substrate concentration at which the rate is half of its maximum.

Substitutions are numbered along the chain they refer to. Names may count otherwise. “Also recorded” adds a separate entry of the source.

The labels stand for the following.
B1: G213A: heparinase I CB-1 mutant, glycine 213 changed to alanine (protein, UniProt Q05819 22-384, looked up, variant G213A)
Heparin lyase I: QQKKSGNIPYRVNVQADSAKQKAIIDNKWVAVGINKPYALQYDDKLRFNGKPSYRFELKAEDNSLEGYAAGETKGRTELSYSYATTNDFKKFPPSVYQNAQKLKTVYHYGKGICEQGSSRSYTFSVYIPSSFPDNATTIFAQWHGAPSRTLVATPEGEIKTLSIEEFLALYDRMIFKKNIAHDKVEKKDKDAKITYVAGKPNGWKVEQGGYPTLAFGFSKGYFYIKANSDRQWLTDKADRNNANPENSEVMKPYSSEYKTSTIAYKMPFAQFPKDCWITFDVAIDWTKYGKEANTILKPGKLDVMMTYTKNKKPQKAHIVNQQEILIGRNDDDGYYFKFGIYRVGNSTVPVTYNLSGYSETAR
B2: Y379A: heparinase I CB-2 mutant, tyrosine 379 changed to alanine (protein, UniProt Q05819 22-384, looked up, variant Y379A)
Heparin lyase I: B1 Heparin lyase I with A192G, Y358A
B3: T216A: heparinase I CB-1 mutant, threonine 216 changed to alanine (protein, UniProt Q05819 22-384, looked up, variant T216A)
Heparin lyase I: B1 Heparin lyase I with A192G, T195A
B4: D210A/D212A: heparinase I CB-1 double mutant (protein, UniProt Q05819 22-384, looked up, variant D210A D212A)
Heparin lyase I: B1 Heparin lyase I with D189A, D191A, A192G
B5: G213A/T216A: heparinase I CB-1 double mutant (protein, UniProt Q05819 22-384, looked up, variant G213A T216A)
Heparin lyase I: B1 Heparin lyase I with T195A
B6: T382A: heparinase I CB-2 mutant, threonine 382 changed to alanine (protein, UniProt Q05819 22-384, looked up, variant T382A)
Heparin lyase I: B1 Heparin lyase I with A192G, T361A
B7: S377A: heparinase I mutant where serine 377 is mutated to alanine; calcium-independent (protein, UniProt Q05819 22-384, looked up, variant S377A)
Heparin lyase I: B1 Heparin lyase I with A192G, S356A
B8: T373A: heparinase I CB-2 mutant, threonine 373 changed to alanine (protein, UniProt Q05819 22-384, looked up, variant T373A)
Heparin lyase I: B1 Heparin lyase I with A192G, T352A
B9: G378A: heparinase I CB-2 mutant, glycine 378 changed to alanine (protein, UniProt Q05819 22-384, looked up, variant G378A)
Heparin lyase I: B1 Heparin lyase I with A192G, G357A
B10: D210A: heparinase I CB-1 mutant, aspartate 210 changed to alanine (protein, UniProt Q05819 22-384, looked up, variant D210A)
Heparin lyase I: B1 Heparin lyase I with D189A, A192G
B11: E207A/D210A: heparinase I CB-1 double mutant (protein, UniProt Q05819 22-384, looked up, variant E207A D210A)
Heparin lyase I: B1 Heparin lyase I with E186A, D189A, A192G
B12: E207A/D212A: heparinase I CB-1 double mutant (protein, UniProt Q05819 22-384, looked up, variant E207A D212A)
Heparin lyase I: B1 Heparin lyase I with E186A, D191A, A192G
B13: D212A: heparinase I CB-1 mutant, aspartate 212 changed to alanine (protein, UniProt Q05819 22-384, looked up, variant D212A)
Heparin lyase I: B1 Heparin lyase I with D191A, A192G
B14: D212A/T216A: heparinase I CB-1 double mutant (protein, UniProt Q05819 22-384, looked up, variant D212A T216A)
Heparin lyase I: B1 Heparin lyase I with D191A, A192G, T195A

One data set in a line: Heparinase I UV 232 nm activity assay as a function of heparin concentration (Kcat, Km). The format is biochemical, porcine.
Details: not given
The text has this: Heparinase II Activity Assay. Native heparinase II from Flavobacterium heparinum, was purified as described previously (Godavarti, R., and Sasisekharan, R (1996c) Biochem. Biophys. Res. Comm. 229, 770-777). The UV 232 nm assay to quantify native heparinase II enzymatic activity was similar to that reported for heparinase I (Bernstein, H., Yang, V. C., Cooney, C. L., Langer, R. (1988) Meth. Enzym. 137, 515-29). Briefly, the course of the reaction is monitored by measuring the increase in absorbance at 232 nm as a function of time under saturating substrate concentrations. With heparin as the substrate, the reaction was carried out at a concentration of 4 mg/ml in 50 mM sodium phosphate buffer, pH 7.3. With 2 mg/ml heparan sulfate, the reaction was measured in 50 mM sodium phosphate buffer, pH 6.9 (Sasisekharan, R., Moses, M. A., Nugent, M. A., Cooney, C. L., Langer, R. (1994) Proc. Natl. Acad. Sci., USA 91, 1524-1528). The temperature for all enzymatic activity measurements was kept constant at 35° C.
Heparinase I Activity Assay. The UV 232 nm assay to quantify heparinase I enzymatic activity was similar to that described in Example 1. With heparin as the substrate, the reaction was carried out at a concentration of 4 mg/ml in 100 mM MOPS, 5 mM calcium acetate, pH 7.0. The temperature for all enzymatic activity measurements was kept constant at 30° C. For the inactivation kinetic profiles, activity was measured as outlined above at precise time points.
(§1) Heparinase I Activity Assays: The UV 232 nm assay was used as described in Example 1. When measuring the enzyme activity as a function of heparin concentration, heparin concentrations varied from 0 to 4 mg/ml at a fixed calcium concentration of 5 mM (100 mM MOPS buffer/5 mM calcium acetate, pH 7.0). The data was then fit to an non-linear equation to determine Kcat and Km of heparinases I. Heparinase mutant activity was also investigated as a function of calcium concentration ranging from 0 to 10 mM. […] Activity is expressed as IU-μmol product formed/min using ∈=−3800-M^−1CM^−1.
For the molecule B1, the “decrease in Kcat compared to wild-type r-heparinase I” value (“decrease in Kcat” below) was “about 3 fold”.

For the molecule B2, the “decrease in Kcat” value was “about 10 fold”.

B3: the “decrease in Kcat” value was approximately 2 fold.

As to B4, the “decrease in Kcat” value stood at 4.5 fold.

Take B5: the “decrease in Kcat” value was 5 fold.

The data set is the same for the next values; noted with them: compared to wild-type r-heparinase I.
In the case of B6, the “effect on enzyme activity (kcat), in words” value (from here on “effect on enzyme activity”) is “decreased only by about 1 half”.

In the case of B7, the “effect on enzyme activity” value is on record as “no significant decrease in enzyme activity”.

B8: the “effect on enzyme activity” value was “no significant decrease in enzyme activity”.

In the case of B9, the “effect on enzyme activity” value is given as “decreased only by about 1 half”.

The data set is the same for the next values; noted with them: heparin 0 to 4 mg/ml, 5 mM calcium acetate, 100 mM MOPS, pH 7.0.
B10: the Kcat came to 74 s⁻¹.

As to B11, the Kcat stood at 65 s⁻¹.

Consider B1, for which the Kcat was 28 s⁻¹.

For the molecule B2, the Kcat turned out to be 9 s⁻¹.

Consider B12, for which the Kcat worked out at 58 s⁻¹.

For B3, the Kcat worked out at 50 s⁻¹.

Turning to B6, the Kcat was 65 s⁻¹.

With B4, the Kcat was found to be 21 s⁻¹.

As to B13, the Kcat came to 65 s⁻¹.

Turning to B5, the Kcat was 19 s⁻¹.

As for B7, the Kcat was found to be 71 s⁻¹.

For B8, the Kcat stood at 85 s⁻¹.

For the molecule B9, the Kcat was 41 s⁻¹.

In the case of B14, the Kcat is 52 s⁻¹.

Staying with this data set, now noted: heparin 0 to 4 mg/ml, 5 mM calcium acetate, pH 7.0.
With B10, the Km is 2.64 µM.

Take B11: the Km was determined as 2.77 µM.

In the case of B1, the Km is 0.97 µM.

In the case of B2, the Km was 0.32 µM.

In the case of B12, the Km was 0.93 µM.

In the case of B3, the Km was 1.45 µM.

On to B6, for which the Km amounted to 1.64 µM.

As to B4, the Km came to 0.32 µM.

With B13, the Km stood at 1.94 µM.

With B5, the Km came to 0.83 µM.

As to B7, the Km was 2.74 µM.

Turning to B8, the Km stood at 0.96 µM.

In the case of B9, the Km amounted to 0.74 µM.

Consider B14, for which the Km worked out at 1.52 µM.

The nature of another data set: Heparin-POROS affinity chromatography. Type of data set: binding.
Details: not given
As for the experimental part: Heparin-POROS chromatography: About 30-40 μg of -L r-heparinase I and the various mutant enzymes were injected into a heparin POROS (4.6 mm×100) column (PerSeptive BioSystems, Framingham, Mass.) connected to BioCAD system (PerSeptive BioSystems). Proteins were eluted using a linear gradient of […] NaCl in 10 min (10 mM Tris, 1 mM EDTA pH 7.0) and monitored at 210 nm. EDTA was added to chelate any calcium ions that may be present in the buffers.
As for B2, the “elution salt concentration / heparin binding relative to wild-type r-heparinase I, in words” value is listed as “comparable to wild-type r-heparinase I”.

For B6, the “elution salt concentration / heparin binding relative to wild-type r-heparinase I, in words” value is listed as “comparable to wild-type r-heparinase I”.

On to B7, for which the “elution salt concentration / heparin binding relative to wild-type r-heparinase I, in words” value was “comparable to wild-type r-heparinase I”.

Regarding B8, the “elution salt concentration / heparin binding relative to wild-type r-heparinase I, in words” value is given as “comparable to wild-type r-heparinase I”.

Take B9: the “elution salt concentration / heparin binding relative to wild-type r-heparinase I, in words” value was “comparable to wild-type r-heparinase I”.

The same data set, now with this note: salt concentration at which enzyme elutes from heparin-POROS column; 10 mM Tris, 1 mM EDTA pH 7.0.
B10: the NaCl turned out to be 500 mM.

Regarding B11, the NaCl was 513 mM.

With B1, the NaCl was found to be 476 mM.

On to B2, for which the NaCl is recorded as 489 mM.

For the molecule B12, the NaCl was 513 mM.

B3: the NaCl was 479 mM.

For the molecule B6, the NaCl stood at 488 mM.

With B4, the NaCl worked out at 515 mM.

As to B13, the NaCl worked out at 498 mM.

With B5, the NaCl was found to be 498 mM.

In the case of B7, the NaCl worked out at 486 mM.

As to B8, the NaCl is recorded as 480 mM.

For B9, the NaCl came to 489 mM.

With B14, the NaCl was determined as 497 mM.

The next data set is described as follows: Heparinase I activity as a function of calcium concentration (K0.5, calcium dependence). Type of data set: biochemical.
Details: not given
As for the experimental part: as §1
Take B7: the “dependence of enzyme activity on calcium” value is “loss of dependence on calcium; also recorded: calcium-independent”.

The same data set, now with this note: Table 4 second K0.5 column.
As for B10, the K0.5 came to 310 µM.

Regarding B11, the K0.5 was 470 µM.

As to B1, the K0.5 amounted to 740 µM.

On to B2, for which the K0.5 was 230 µM.

For the molecule B12, the K0.5 amounted to 710 µM.

With B3, the K0.5 was found to be 430 µM.

B6: the K0.5 stood at 100 µM.

Regarding B4, the K0.5 was 700 µM.

B13: the K0.5 turned out to be 370 µM.

As to B5, the K0.5 stood at 2200 µM.

B7: the K0.5 stood at 50 µM.

Regarding B8, the K0.5 amounted to 50 µM.

Consider B9, for which the K0.5 stood at 80 µM.

Regarding B14, the K0.5 was 320 µM.

Still in this data set, the particulars now being: calcium concentration at which half of the maximum enzyme activity was observed; calcium 0 to 10 mM; Table 4 first K0.5 column.
On to B10, for which the K0.5 came to 310 µM.

As for B11, the K0.5 came out at 470 µM.

As for B1, the K0.5 turned out to be 740 µM.

Regarding B2, the K0.5 is 230 µM.

For B12, the K0.5 came to 710 µM.

For B3, the K0.5 amounted to 430 µM.

For the molecule B6, the K0.5 came out at 100 µM.

As for B4, the K0.5 was determined as 700 µM.

With B13, the K0.5 amounted to 370 µM.

Turning to B5, the K0.5 was 2200 µM.

For B7, the K0.5 is 50 µM.

B8: the K0.5 is 50 µM.

Take B9: the K0.5 amounted to 80 µM.

Turning to B14, the K0.5 was found to be 320 µM.
